Data as given in patent EP4703382A1 (Kanglitai Biomedical (Qingdao) Co., Ltd., dated 2026).
Several values for one entry are separate records, joined by “and”; a condition that tells them apart may be missing. Equal values may be shown once. Read-outs that look alike come from different tables or passages of the source.

Assays:
[1] = target: T1, human PDL1-Fc fusion protein (human); assay: ELISA, human PDL1-Fc coated 200 ng/well, anti-His HRP
T1 construct: also called human PDL1-Fc recombinant protein
T1 sequence (chain, as listed by the source limits assumed): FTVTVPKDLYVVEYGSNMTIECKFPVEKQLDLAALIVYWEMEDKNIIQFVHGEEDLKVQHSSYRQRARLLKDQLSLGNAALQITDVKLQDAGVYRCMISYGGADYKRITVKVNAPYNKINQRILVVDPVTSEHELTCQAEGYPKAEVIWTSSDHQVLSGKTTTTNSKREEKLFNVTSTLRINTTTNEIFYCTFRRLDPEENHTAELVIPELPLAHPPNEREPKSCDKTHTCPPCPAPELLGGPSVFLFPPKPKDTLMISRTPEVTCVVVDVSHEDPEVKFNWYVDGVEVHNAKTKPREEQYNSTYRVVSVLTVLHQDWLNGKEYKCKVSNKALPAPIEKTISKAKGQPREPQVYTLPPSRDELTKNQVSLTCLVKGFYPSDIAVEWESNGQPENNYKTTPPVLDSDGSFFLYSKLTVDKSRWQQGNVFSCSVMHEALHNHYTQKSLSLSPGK

[2] = target: T1, human PDL1-Fc fusion protein; assay: as above; remark: listed apart in the source
[3] = target: T1, human PDL1-Fc fusion protein; assay: BLI (ForteBIO Octet QKe), PDL1-Fc loaded, analyte 100 nM
[4] = target: T1, human PDL1-Fc fusion protein; assay: ELISA, human PDL1-Fc coated 200 ng/well, anti-His HRP; remark: listed apart in the source
[5] = target: T2, recombinant protein PD-L1-His (human, UniProt Q9NZQ7 19-238); assay: competitive ELISA, PDL1-his coated, competitor PD1-Fc 50 µg/mL
T2 construct: also called PD-L1-his fusion protein; human PDL1-his protein
T2 sequence (Q9NZQ7 19-238 limits assumed): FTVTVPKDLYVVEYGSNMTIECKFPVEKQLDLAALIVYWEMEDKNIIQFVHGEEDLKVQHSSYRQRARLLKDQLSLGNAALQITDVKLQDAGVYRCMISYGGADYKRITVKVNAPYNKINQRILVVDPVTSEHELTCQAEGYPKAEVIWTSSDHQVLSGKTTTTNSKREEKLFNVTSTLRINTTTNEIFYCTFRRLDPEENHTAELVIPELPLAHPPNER

[6] = target: T3, human PD-L1 expressed on Raji cells (human, UniProt Q9NZQ7 19-290); assay: flow cytometry competition on Raji-PDL1 cells, competitor PD1-Fc
T3 construct: whole, on cells; also called Raji-PDL1; PDL1 protein expressed on Raji cells
T3 sequence (Q9NZQ7 19-290): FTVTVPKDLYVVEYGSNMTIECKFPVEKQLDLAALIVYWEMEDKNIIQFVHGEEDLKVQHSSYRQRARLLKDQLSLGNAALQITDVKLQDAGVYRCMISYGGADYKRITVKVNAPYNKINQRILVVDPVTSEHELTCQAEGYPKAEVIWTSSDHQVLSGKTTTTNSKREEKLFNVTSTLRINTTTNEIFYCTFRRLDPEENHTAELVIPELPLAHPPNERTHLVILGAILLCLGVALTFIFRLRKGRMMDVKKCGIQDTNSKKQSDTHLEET

[7] = target: T1, human PDL1-Fc fusion protein; assay: ELISA, human PDL1-Fc coated 200 ng/well, anti-His HRP; remark: listed apart in the source

B1: Fusion 2 (other, murine)
chain 1: RVIPVSGPARCLSQSRNLLKTTDDMVKTAREKLKHYSCTAEDIDHEDITRDQTSTLKTCLPLELHKNESCLATRETSSTTRGSCLPPQKTSLMMTLCLGSIYEDLKMYQTEFQAINAALQNHNHQQIILDKGMLVAIDELMQSLNHNGETLRQKPPVGEADPYRVKMKLCILLHAFSTRVVTINRVMGYLSSAHHHHHH
chain 2: MWELEKDVYVVEVDWTPDAPGETVNLTCDTPEEDDITWTSDQRHGVIGSGKTLTITVKEFLDAGQYTCHKGGETLSHSHLLLHKKENGIWSTEILKNFKNKTFLKCEAPNYSGRFTCSWLVQRNMDLKFNIKSSSSSPDSRAVTCGMASLSAEKVTLDQRDYEKYSVSCQEDVTCPTAEETLPIELALEARQQNKYENYSTSFFIRDIIKPDPPKNLQMKPLKNSQVEVSWEYPDSWSTPHSYFSLKFFVRIQRKKEKMKETEEGCNQKGAFLVEKTSTEVQCKGGNVCVQAQDRYYNSSCSKWACVPCRVRSGGGGSGGGGSGGGGSQVQLQESGGGLVQPGGSLTLSCAASGFTVSNSAVSWARQAPGKGLEWVSLIDSNRNTVYAQSVRGRFTISRDNVKNTVYLQMNSLKPEDTAVYYCAKGIWGSTLTGQGTQVTVSS
notes: PDL1-1 nanobody fused with murine IL-12; two plasmids co-transfected 1:1; also called mP35-6his + mP40-P1
EC50 [1]: 4.1 µg/mL and 54.3 nM

B2: Fusion 4 (other, murine)
chain 1: RVIPVSGPARCLSQSRNLLKTTDDMVKTAREKLKHYSCTAEDIDHEDITRDQTSTLKTCLPLELHKNESCLATRETSSTTRGSCLPPQKTSLMMTLCLGSIYEDLKMYQTEFQAINAALQNHNHQQIILDKGMLVAIDELMQSLNHNGETLRQKPPVGEADPYRVKMKLCILLHAFSTRVVTINRVMGYLSSAHHHHHH
chain 2: QVQLQESGGGLVQPGGSLTLSCAASGFTVSNSAVSWARQAPGKGLEWVSLIDSNRNTVYAQSVRGRFTISRDNVKNTVYLQMNSLKPEDTAVYYCAKGIWGSTLTGQGTQVTVSSGGGGSGGGGSGGGGSMWELEKDVYVVEVDWTPDAPGETVNLTCDTPEEDDITWTSDQRHGVIGSGKTLTITVKEFLDAGQYTCHKGGETLSHSHLLLHKKENGIWSTEILKNFKNKTFLKCEAPNYSGRFTCSWLVQRNMDLKFNIKSSSSSPDSRAVTCGMASLSAEKVTLDQRDYEKYSVSCQEDVTCPTAEETLPIELALEARQQNKYENYSTSFFIRDIIKPDPPKNLQMKPLKNSQVEVSWEYPDSWSTPHSYFSLKFFVRIQRKKEKMKETEEGCNQKGAFLVEKTSTEVQCKGGNVCVQAQDRYYNSSCSKWACVPCRVRS
notes: PDL1-1 nanobody fused with murine IL-12; two plasmids co-transfected 1:1; also called mP35-6his + P1-mP40
EC50 [1]: 0.75 µg/mL and 9.91 nM

B3: Fusion 1 (other, murine)
chain 1: RVIPVSGPARCLSQSRNLLKTTDDMVKTAREKLKHYSCTAEDIDHEDITRDQTSTLKTCLPLELHKNESCLATRETSSTTRGSCLPPQKTSLMMTLCLGSIYEDLKMYQTEFQAINAALQNHNHQQIILDKGMLVAIDELMQSLNHNGETLRQKPPVGEADPYRVKMKLCILLHAFSTRVVTINRVMGYLSSAGGGGSGGGGSGGGGSQVQLQESGGGLVQPGGSLTLSCAASGFTVSNSAVSWARQAPGKGLEWVSLIDSNRNTVYAQSVRGRFTISRDNVKNTVYLQMNSLKPEDTAVYYCAKGIWGSTLTGQGTQVTVSSHHHHHHHH
chain 2: MWELEKDVYVVEVDWTPDAPGETVNLTCDTPEEDDITWTSDQRHGVIGSGKTLTITVKEFLDAGQYTCHKGGETLSHSHLLLHKKENGIWSTEILKNFKNKTFLKCEAPNYSGRFTCSWLVQRNMDLKFNIKSSSSSPDSRAVTCGMASLSAEKVTLDQRDYEKYSVSCQEDVTCPTAEETLPIELALEARQQNKYENYSTSFFIRDIIKPDPPKNLQMKPLKNSQVEVSWEYPDSWSTPHSYFSLKFFVRIQRKKEKMKETEEGCNQKGAFLVEKTSTEVQCKGGNVCVQAQDRYYNSSCSKWACVPCRVRS
notes: PDL1-1 nanobody fused with murine IL-12; two plasmids co-transfected 1:1; also called mP35-P1-8his + mP40
EC50 [1]: 0.373 µg/mL and 4.93 nM

B4: Fusion 3 (other, murine)
chain 1: QVQLQESGGGLVQPGGSLTLSCAASGFTVSNSAVSWARQAPGKGLEWVSLIDSNRNTVYAQSVRGRFTISRDNVKNTVYLQMNSLKPEDTAVYYCAKGIWGSTLTGQGTQVTVSSGGGGSGGGGSGGGGSRVIPVSGPARCLSQSRNLLKTTDDMVKTAREKLKHYSCTAEDIDHEDITRDQTSTLKTCLPLELHKNESCLATRETSSTTRGSCLPPQKTSLMMTLCLGSIYEDLKMYQTEFQAINAALQNHNHQQIILDKGMLVAIDELMQSLNHNGETLRQKPPVGEADPYRVKMKLCILLHAFSTRVVTINRVMGYLSSAHHHHHHHH
chain 2: MWELEKDVYVVEVDWTPDAPGETVNLTCDTPEEDDITWTSDQRHGVIGSGKTLTITVKEFLDAGQYTCHKGGETLSHSHLLLHKKENGIWSTEILKNFKNKTFLKCEAPNYSGRFTCSWLVQRNMDLKFNIKSSSSSPDSRAVTCGMASLSAEKVTLDQRDYEKYSVSCQEDVTCPTAEETLPIELALEARQQNKYENYSTSFFIRDIIKPDPPKNLQMKPLKNSQVEVSWEYPDSWSTPHSYFSLKFFVRIQRKKEKMKETEEGCNQKGAFLVEKTSTEVQCKGGNVCVQAQDRYYNSSCSKWACVPCRVRS
notes: PDL1-1 nanobody fused with murine IL-12; two plasmids co-transfected 1:1; also called P1-mP35-8his + mP40
EC50 [1]: 0.251 µg/mL and 3.33 nM

B5: PDL1-1v15 (VHH)
VHH: QVQLVESGGGLVKPGGSLRLSCAASGFTVSNSAVSWARQAPGKGLEWVSLIDSNRNTVYAQSVRGRFTISRDNAKNTVYLQMNSLRAEDTAVYYCAKGIWGSTLWGQGTTVTVSS
notes: Humanized PDL1-1, His-tagged
EC50 [2]: 0.0432 µg/mL | Kd [3]: 10.8 nM

B6: PDL1-1v18 (VHH)
VHH: QVQLVESGGGLVKPGGSLRLSCAASGFTVSNSAVSWARQAPGKGLEWVSLIDSNRNTVYAQSVRGRFTISRDNAKNSVYLQMNSLRAEDTAVYYCAKGIWGSTLTGQGTTVTVSS
notes: Humanized PDL1-1, His-tagged
EC50 [4]: 0.0182 µg/mL | Kd [3]: 4.16 nM | IC50 [5]: 5.22 µg/mL | IC50 [6]: 0.694 µg/mL

B7: PDL1-1v12 (VHH)
VHH: QVQLVESGGGLVQPGGSLRLSCAASGFTVSNSAVSWARQAPGKGLEWVSLIDSNRNTVYAQSVRGRFTISRDNAKNSVYLQMNSLRAEDTAVYYCAKGIWGSTLWGQGTTVTVSS
notes: Humanized PDL1-1, His-tagged
EC50 [4]: 1.24 µg/mL | Kd [3]: 389 nM

B8: PDL1-1v14 (VHH)
VHH: QVQLVESGGGLVKPGGSLRLSCAASGFTVSNSAVSWARQAPGKGLEWVSLIDSNRNTVYAQSVRGRFTISRDNVKNSVYLQMNSLRAEDTAVYYCAKGIWGSTLWGQGTTVTVSS
notes: Humanized PDL1-1, His-tagged
EC50 [2]: 0.0342 µg/mL | Kd [3]: 7.37 nM | IC50 [5]: 37.1 µg/mL | IC50 [6]: 4.58 µg/mL

B9: PDL1-1v10 (VHH)
VHH: EVQLLESGGGLVQPGGSLRLSCAASGFTVSNSAVSWARQAPGKGLEWVSLIASNRNTVYAQSVRGRFTISRDNSKNTVYLQMNSLRAEDTAVYYCAKGIWGSTLWGQGTTVTVSS
notes: Humanized PDL1-1, His-tagged
EC50 [7]: ~110 µg/mL | Kd [3]: 30.5 nM

B10: PDL1-1v16 (VHH)
VHH: QVQLVESGGGLVKPGGSLRLSCAASGFTVSNSAVSWARQAPGKGLEWVSLIDSNRNTVYAQSVRGRFTISRDNAKNSVYLQMNSLKAEDTAVYYCAKGIWGSTLWGQGTTVTVSS
notes: Humanized PDL1-1, His-tagged
EC50 [2]: 0.0629 µg/mL | Kd [3]: 14.3 nM

B11: PDL1-1v11 (VHH)
VHH: QVQLQESGGGLVKPGGSLRLSCAASGFTVSNSAVSWARQAPGKGLEWVSLIDSNRNTVYAQSVRGRFTISRDNAKNSVYLQMNSLRAEDTAVYYCAKGIWGSTLWGQGTTVTVSS
notes: Humanized PDL1-1, His-tagged
EC50 [2]: 0.02 µg/mL | Kd [3]: 5.86 nM | IC50 [5]: 31.1 µg/mL | IC50 [6]: 2.48 µg/mL

B12: PDL1-1v20 (VHH)
VHH: QVQLVESGGGLVKPGGSLRLSCAASGFTVSNSAVSWARQAPGKGLEWVSLIASNRNTVYAQSVRGRFTISRDNAKNSVYLQMNSLRAEDTAVYYCAKGIWGSTLWGQGTTVTVSS
notes: Humanized PDL1-1, His-tagged
EC50 [4]: 0.875 µg/mL | Kd [3]: 32.5 nM

B13: PDL1-1v17 (VHH)
VHH: QVQLVESGGGLVKPGGSLRLSCAASGFTVSNSAVSWARQAPGKGLEWVSLIDSNRNTVYAQSVRGRFTISRDNAKNSVYLQMNSLRPEDTAVYYCAKGIWGSTLWGQGTTVTVSS
notes: Humanized PDL1-1, His-tagged
EC50 [4]: 0.0664 µg/mL | Kd [3]: 10.2 nM

B14: PDL1-1v3 (VHH)
VHH: QVQLLESGGGLVQPGGSLRLSCAASGFTVSNSAVSWARQAPGKGLEWVSLIDSNRNTVYAQSVRGRFTISRDNSKNTVYLQMNSLRAEDTAVYYCAKGIWGSTLWGQGTTVTVSS
notes: Humanized PDL1-1, His-tagged
EC50 [7]: 0.0336 µg/mL | Kd [3]: 18.5 nM

B15: PDL1-1v6 (VHH)
VHH: EVQLLESGGGLVQPGGSLRLSCAASGFTVSNSAVSWARQAPGKGLEWVSLIDSNRNTVYAQSVRGRFTISRDNSKNTVYLQMNSLKAEDTAVYYCAKGIWGSTLWGQGTTVTVSS
notes: Humanized PDL1-1, His-tagged
EC50 [7]: 0.0505 µg/mL | Kd [3]: 22.1 nM

B16: PDL1-1v8 (VHH)
VHH: EVQLLESGGGLVQPGGSLRLSCAASGFTVSNSAVSWARQAPGKGLEWVSLIDSNRNTVYAQSVRGRFTISRDNSKNTVYLQMNSLRAEDTAVYYCAKGIWGSTLTGQGTTVTVSS
notes: Humanized PDL1-1, His-tagged
EC50 [7]: 0.0108 µg/mL | Kd [3]: 5.9 nM | IC50 [5]: 5.58 µg/mL | IC50 [6]: 0.458 µg/mL

B17: PDL1-1v2 (VHH)
VHH: QVQLVESGGGLVKPGGSLRLSCAASGFTVSNSAVSWARQAPGKGLEWVSLIDSNRNTVYAQSVRGRFTISRDNAKNSVYLQMNSLRAEDTAVYYCAKGIWGSTLWGQGTTVTVSS
notes: Humanized PDL1-1, His-tagged
EC50 [2]: 0.0423 µg/mL | EC50 [4]: 0.0591 µg/mL | Kd [3]: 14.3 nM

B18: PDL1-1v19 (VHH)
VHH: QVQLVESGGGLVKPGGSLRLSCAASGFTVSNSAVSWARQAPGKGLEWVSLIDSNRNTVYAQSVRGRFTISRDNAKNSVYLQMNSLRAEDTAVYYCAKGIWGSTLWGQGTQVTVSS
notes: Humanized PDL1-1, His-tagged
EC50 [4]: 0.0484 µg/mL | Kd [3]: 9.86 nM | IC50 [5]: 18.8 µg/mL | IC50 [6]: 2.59 µg/mL

B19: PDL1-1v13 (VHH)
VHH: QVQLVESGGGLVKPGGSLTLSCAASGFTVSNSAVSWARQAPGKGLEWVSLIDSNRNTVYAQSVRGRFTISRDNAKNSVYLQMNSLRAEDTAVYYCAKGIWGSTLWGQGTTVTVSS
notes: Humanized PDL1-1, His-tagged
EC50 [4]: 0.0461 µg/mL | Kd [3]: 11.4 nM
